Numbering of substitutions follows the chain as printed. Read-outs that look alike come from different tables or passages of the source.

The Kd is the concentration at which binding is half-saturated. The low end stands for a tighter complex, the high end for a looser complex.

The target in data set [1] is T1, XPF-HLD (human, UniProt Q92889 12-672).
T1 sequence: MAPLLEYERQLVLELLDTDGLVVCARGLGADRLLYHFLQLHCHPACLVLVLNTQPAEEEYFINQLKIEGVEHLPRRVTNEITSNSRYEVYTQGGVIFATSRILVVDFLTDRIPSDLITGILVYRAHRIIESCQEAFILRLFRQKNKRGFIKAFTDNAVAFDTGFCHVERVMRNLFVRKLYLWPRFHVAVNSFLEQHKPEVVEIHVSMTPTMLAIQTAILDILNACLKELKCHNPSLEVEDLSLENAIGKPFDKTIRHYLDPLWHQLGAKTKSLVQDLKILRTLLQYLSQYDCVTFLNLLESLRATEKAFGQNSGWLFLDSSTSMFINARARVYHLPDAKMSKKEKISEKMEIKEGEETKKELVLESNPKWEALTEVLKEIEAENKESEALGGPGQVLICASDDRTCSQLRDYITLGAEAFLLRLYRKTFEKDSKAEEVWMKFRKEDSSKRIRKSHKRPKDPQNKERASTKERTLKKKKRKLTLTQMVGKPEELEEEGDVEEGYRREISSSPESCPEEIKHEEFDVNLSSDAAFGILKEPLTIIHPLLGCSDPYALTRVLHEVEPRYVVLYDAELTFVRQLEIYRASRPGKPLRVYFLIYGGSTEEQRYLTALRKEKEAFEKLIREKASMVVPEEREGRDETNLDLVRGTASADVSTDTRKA
Briefly: fluorescence polarization. Background: Fluorescence polarisation rises when a labelled molecule tumbles more slowly, as on binding a larger partner.

The target in data set [2] is T1, XPF-HLD. The data set can be described thus: fluorescence polarization. The source holds these as a separate data set.
The target of data set [3] is T1, XPF-HLD. Briefly: fluorescence polarization. The source holds these as a separate data set.
The next data set addresses T2, XPF;ERCC1 (human;human, UniProt Q92889;P07992 12-916;1-297, |).
T2 sequence 1: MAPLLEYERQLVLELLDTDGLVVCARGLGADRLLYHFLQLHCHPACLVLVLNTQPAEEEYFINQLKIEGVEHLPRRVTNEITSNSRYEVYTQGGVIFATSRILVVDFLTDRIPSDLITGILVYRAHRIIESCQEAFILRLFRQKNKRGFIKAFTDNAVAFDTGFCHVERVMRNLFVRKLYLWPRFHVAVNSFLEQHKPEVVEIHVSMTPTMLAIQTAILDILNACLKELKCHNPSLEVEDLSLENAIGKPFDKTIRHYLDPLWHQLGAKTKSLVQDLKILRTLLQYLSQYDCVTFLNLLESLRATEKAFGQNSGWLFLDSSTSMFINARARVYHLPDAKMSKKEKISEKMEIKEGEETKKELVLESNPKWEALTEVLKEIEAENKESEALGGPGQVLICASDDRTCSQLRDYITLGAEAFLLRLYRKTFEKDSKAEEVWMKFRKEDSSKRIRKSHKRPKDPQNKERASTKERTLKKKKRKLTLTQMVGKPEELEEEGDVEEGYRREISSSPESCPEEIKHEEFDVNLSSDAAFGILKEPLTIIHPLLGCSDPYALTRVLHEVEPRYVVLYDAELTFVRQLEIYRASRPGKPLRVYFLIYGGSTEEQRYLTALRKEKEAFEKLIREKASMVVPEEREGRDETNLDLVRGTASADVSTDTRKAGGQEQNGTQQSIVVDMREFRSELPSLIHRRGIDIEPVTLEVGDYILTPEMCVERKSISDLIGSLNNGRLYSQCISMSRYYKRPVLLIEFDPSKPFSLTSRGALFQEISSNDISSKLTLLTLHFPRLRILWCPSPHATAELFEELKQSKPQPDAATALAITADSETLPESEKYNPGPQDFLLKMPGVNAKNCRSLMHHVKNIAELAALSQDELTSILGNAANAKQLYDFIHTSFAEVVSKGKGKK
T2 sequence 2: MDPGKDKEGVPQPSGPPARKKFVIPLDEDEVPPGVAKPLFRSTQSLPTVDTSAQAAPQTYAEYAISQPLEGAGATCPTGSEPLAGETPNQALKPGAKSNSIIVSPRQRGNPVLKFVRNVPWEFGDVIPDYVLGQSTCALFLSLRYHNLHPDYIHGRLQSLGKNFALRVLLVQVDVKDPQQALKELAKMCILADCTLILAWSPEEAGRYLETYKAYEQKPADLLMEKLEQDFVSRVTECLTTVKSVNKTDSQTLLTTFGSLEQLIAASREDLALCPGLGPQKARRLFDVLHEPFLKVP
Briefly: SPR.

B1: Stem10-loop20 X=C Y=T (structured_DNA)
DNA: CAGCGCCTGGTTTTTTTTTTTTTTTTTTTTCCAGGCGCTG
In the case of B1, the Kd in the data set with XPF-HLD [1] worked out at 63 nM. This counts as double-digit nanomolar.

B2: Stem10-loop20 X=G Y=G (structured_DNA)
DNA: B1 DNA with C7G, T8G, A33C, G34C
Turning to B2, in the data set with XPF-HLD [2], the binding result is on record as “binds”.

B3: Stem10-loop20 X=T Y=T (structured_DNA)
DNA: B1 DNA with C7T, G34A
Turning to B3, the binding result with XPF-HLD [2] is “binds”.

B4: 15-mer single strand (FP) (ssDNA)
DNA: GCGCTCGGCGTTTTT
B4: the Kd with XPF-HLD [3] came to 263 nM. That is a sub-micromolar value.

B5: Duplex with 2T loop (stem10-loop2), SPR (structured_DNA)
DNA: CAGCGCTCGGTTCCGAGCGCTG
B5: in the data set with XPF;ERCC1, the binding result is listed as “no binding”.

B6: 2T stem-loop duplex (FP) (structured_DNA)
DNA: CAGCGCTCGGTTCCGAGCGCTG
The molecule B6 came in with a Kd with XPF-HLD [3] of 217 nM.

Values taken from paper PMC3401468.
